Target: T1, His-DUB3 (UniProt Q6R6M4 1-530)
T1 construct: cloned into PET28A; source: purified recombinant
T1 sequence (looked up): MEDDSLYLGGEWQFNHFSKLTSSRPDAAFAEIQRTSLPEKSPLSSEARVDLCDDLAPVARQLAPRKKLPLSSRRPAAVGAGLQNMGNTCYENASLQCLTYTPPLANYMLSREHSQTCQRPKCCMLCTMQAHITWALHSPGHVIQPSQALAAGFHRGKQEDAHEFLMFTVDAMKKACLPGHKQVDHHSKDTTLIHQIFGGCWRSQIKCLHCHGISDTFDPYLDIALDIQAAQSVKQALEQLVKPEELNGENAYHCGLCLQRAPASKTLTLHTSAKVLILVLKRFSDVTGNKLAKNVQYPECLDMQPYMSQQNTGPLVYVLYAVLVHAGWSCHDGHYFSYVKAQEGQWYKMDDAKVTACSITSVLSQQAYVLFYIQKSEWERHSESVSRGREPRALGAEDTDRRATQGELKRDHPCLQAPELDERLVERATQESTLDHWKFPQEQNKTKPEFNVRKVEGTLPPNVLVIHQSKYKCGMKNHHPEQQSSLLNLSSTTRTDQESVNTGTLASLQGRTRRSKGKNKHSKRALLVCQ
Experiment: pull-down; purified recombinant GST or GST fusion protein and His-tagged protein incubated in vitro
Details: both partners purified

B1: GST-CDK4 (enzyme, UniProt P11802 1-303, looked up)
chain: MATSRYEPVAEIGVGAYGTVYKARDPHSGHFVALKSVRVPNGGGGGGGLPISTVREVALLRRLEAFEHPNVVRLMDVCATSRTDREIKVTLVFEHVDQDLRTYLDKAPPPGLPAETIKDLMRQFLRGLDFLHANCIVHRDLKPENILVTSGGTVKLADFGLARIYSYQMALTPVVVTLWYRAPEVLLQSTYATPVDMWSVGCIFAEMFRRKPLFCGNSEADQLGKIFDLIGLPPEDDWPRDVSLPRGAFPPRGPRPVQSVVPEMEESGAQLLLEMLTFNPHKRISAFRALQHSYLHKDEGNPE
notes: also called CDK4/6; source: purified recombinant
- binding result: binds

Source: PMC5228031, “CDK4/6-dependent activation of DUB3 regulates cancer metastasis through SNAIL1” (Nature Communications, 2017)
